Assay results: US6660837

Columns and labels:
[1] = biological target: [γ-32P]GTP·GST-RhoA (human) (UniProt P61586); assay: cell-based or functional assay
[2] = tested on: [Ser^46] PKN (39-53) peptide

[γ-32P]GTP·GST-RhoA (human), sequence (P61586 whole entry): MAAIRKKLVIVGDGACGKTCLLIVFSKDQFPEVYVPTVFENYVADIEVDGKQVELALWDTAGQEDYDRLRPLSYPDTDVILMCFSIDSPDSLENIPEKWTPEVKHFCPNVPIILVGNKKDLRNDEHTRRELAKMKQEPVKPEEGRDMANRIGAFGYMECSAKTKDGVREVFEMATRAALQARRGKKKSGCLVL

Substance	half life of GTP bound to RhoA (endogenous GTPase activity) [1] [min]	Km (phosphorylation of the peptide by PKN) [2]
GST-PKN (N-terminal region of human PKN, amino acid sequence 1-538, fused to GST) (from UniProt Q16512 1-538)	> 15	–
PKN purified from rat testis cytosol	–	a Km of approximately 25 µM
